From patent US20080253996A1, “Use of Sdf-1 for the Treatment and/or Prevention of Neurological Diseases” (LABORATORIES SERONO SA, priority 2005, published 2008)

Legend:
sciatic nerve crush mice = experiment: Neuropathy induced by sciatic nerve crush, electrophysiological recording (CMAP); type: in vivo, mouse
Experimental: […] 8 week-old females C57bl/6 RJ mice (Elevage Janvier, Le Genest-St-Isle, France) were used. They were divided into 6 groups (n=6): • (a) nerve crush/Vehicle (Saline/0.02% BSA); • (b) nerve crush/SDF-1α (3 μg/kg); • (c) nerve crush/SDF-1α (10 μg/kg); • (d) nerve crush/SDF-1α (30 μg/kg); • (e) nerve crush/SDF-1α (100 μg/kg); • (f) nerve crush/IL-6 (30 μg/kg).
The animals were anaesthetized by inhalation of 3% Isoflurane (Baxter). The right sciatic nerve was surgically exposed at mid thigh level and crushed at 5 mm proximal to the trifurcation of the sciatic nerve. The nerve was crushed twice for 30s with a haemostatic forceps (width 1.5 mm; Koenig; Strasbourg; France) with a 90-degree rotation between each crush.
Electromyographical (EMG) testing was performed once before the surgery day and each week during 3 weeks following the operation.
The day of nerve crush surgery was considered as dpl 0 (dpl=day post lesion). No test was performed during the 4 days following the crush.
From the day of nerve injury to the end of the study, SDF-1α, IL-6 or Vehicle were administered daily by subcutaneous injections (s.c.) route, 5 days per week.
Electrophysiological recordings were performed using a Neuromatic 2000M electromyograph (EMG) (Dantec, Les Ulis, France). Mice were anaesthetized by inhalation of 3% Isofluran® (Baxter). The normal body temperature was maintained using a heated operating table (Minerve, Esternay, France).
Compound muscle action potential (CMAP) was measured in the gastrocnemius muscle after a single 0.2 ms stimulation of the sciatic nerve at a supramaximal intensity (12.8 mA). The amplitude (mV) and the latency (ms) of the action potential were measured on the operated leg. The measures was also registered on the contralateral (uncrushed) leg of Vehicle treated animals (Baseline). The amplitude is indicative of the number of active motor units, while the distal latency indirectly reflects motor nerve conduction and neuromuscular transmission velocities, which depends in part on the degree of myelination.
Global analysis of the data was performed using one-way ANOVA. Dunnett's test was used further, and data were compared to the “vehicle” control. The level of significance was set at a: p<0.001; b or **: p<0.01; c or *: p<0.05; d: p<0.1. The results were expressed as mean ±standard error of the mean (s.e.m.).
The sciatic nerve crush model described in Example 4 above was carried out to test SDF-1α variant as defined in SEQ ID NO: 4 and the mice were divided into the following 2 groups (n=6):
The SDF-1α variant used in this example and encoded by SEQ ID NO: 4 was expressed with an additional N terminal Methionine. The CMAP duration (time needed for a depolarization and a repolarization session) was also recorded.
The sciatic nerve crush model described in Example 4 above was carried out to test Met-SDF-1α (as defined in SEQ ID NO: 7) and the mice were divided into the following 2 groups (n=6):
(b) nerve crush/Met-SDF-1α variant at 100, 30, and 10 μg/kg s.c.

[1] = system: primary mixed cortical cultures stimulated with LPS; experiment: Cytokine release (TNF-α, IL-6) from LPS stimulated primary mixed cortical cultures; type: cell-based, mouse; settings: for levels of IL-6 secretion / levels of TNF-α secretion: pre-incubation 3 h (SDF proteins 0.001, 0.1, 10 ng/ml; IL-10 10 ng/ml; dexamethasone 25 pM), then LPS 5 ng/ml 48 h, ELISA, compared to untreated cells
Experimental: Culturing of primary cells was performed as described (Lubetzki et al., 1993) using brain tissue from embryos isolated from NMRI mice at 16 days post-coitum. Cerebral hemispheres were dissected from embryo brains, dissociated via trypsin digestion and the single cell suspension was seeded at 5×10^4 cells in 50 μl myelination medium per well onto BioCoat® poly-L-lysine coated 96-well plates (356516, Becton Dickinson). The myelination medium consisted of Bottenstein-Sato medium (Bottenstein and Sato, 1979; Sadir et al., 2001), supplemented with 1% FCS, 1% penicillin-streptomycin solution (Seromed) and recombinant platelet-derived growth factor AA (PDGF-AA, R&D Systems) at 10 ng/mL.
For testing the effects of SDF-1α and SDF-1α variant (as defined in SEQ ID NO: 4) on LPS stimulated cultures, cells were allowed to grow for two weeks. At day 14 cells were pre-incubated with increasing concentrations (0.001, 0.1 and 10 ng/ml) of the corresponding proteins into 25 μl of medium for three hours at 37° C. and 10% CO2. LPS was then supplemented to the cells at the concentration of 5 ng/ml into 25 μl of medium to obtain a final volume of 100 μl and incubated for 48 hours. Supernatants were collected at day 16 and the levels of TNF-α and IL-6 (the major cytokines released by activated microglia) were measured via specific ELISAs purchased from R&D systems (DuoSet mouse TNF-α ELISA DY410, mouse IL-6 ELISA DY406).
Global analysis of the data was performed using one-way ANOVA. Dunnett's test was used further, and data were compared to the “untreated cells”. The level of significance was set at a: p<0.001; b or **: p<0.01; c or *: p<0.05; d: p<0.1. The results were expressed as mean ±standard error of the mean (s.e.m.).

[2] = system: leukocytes recruited in the peritoneal cavity; experiment: In vivo model of peritoneal cell recruitment; parameters: species or system mouse; settings: 4 μg i.p. in Balb/C mice, 4 hours post injection
Experimental: 8-12 week old, female Balb/C mice (Janvier, France) were injected intra peritoneally (i.p.) with 200 μl NaCl (0.9%, LPS free) or chemokine 4 μg (WT SDF-1α or SDF-1α variant according to SEQ ID NO:4 diluted in 200 μl NaCl (0.9%, LPS free). […] of WT or mutant SDF-1α, mice were sacrificed by CO2 asphyxiation, the peritoneal cavity was washed with 3×5 ml ice cold PBS and the total lavage was pooled for individual mice. Total cells collected were counted by haemocytometer (Neubauer, Germany).

## Met-SDF-1α: Human mature isoform SDF-1α having an additional N-terminal Methionine, SEQ ID NO: 7
Sciatic nerve crush mice; 100, 30, and 10 μg/kg s.c., day 7 and day 14 after crush
  CMAP latency vs vehicle treated mice: significantly reduced

B1: SDF-1α variant: Triple mutant of SDF-1α (Lys24Ala, His25Ala, Lys27Ala), SEQ ID NO: 4, reduced GAG binding activity (protein)
chain: KPVSLSYRCPCRFFESHVARANVAALAILNTPNCALQIVARLKNNNRQVCIDPKLKWIQEYLEKALNK
modifications: Human
[1]
  levels of IL-6 secretion: significantly decreased
  levels of TNF-α secretion: significantly decreased
[1]; tested 0.001, 0.1 and 10 ng/ml, LPS 5 ng/ml 48 h
  best concentration for decrease of TNF-α and IL-6 secretion: 10 ng/mL
[2]
  leukocyte recruitment in the peritoneal cavity: did not recruit leukocytes
Sciatic nerve crush mice; 30 μg/kg s.c., 7 dpl and 22 dpl
  CMAP duration vs vehicle treated mice: reduced
Sciatic nerve crush mice; 30 μg/kg s.c., 22 dpl
  CMAP amplitude: significant increase
  CMAP latency vs vehicle treated mice: positive effect
Sciatic nerve crush mice; 30 μg/kg s.c., especially at 7 dpl
  CMAP latency vs vehicle treated mice: significantly reduced

B2: IL-10: control molecule shown to inhibit cytokine release from activated microglia (protein, UniProt P18893 19-178, looked up)
Interleukin-10: SRGQYSREDNNCTHFPVGQSHMLLELRTAFSQVKTFFQTKDQLDNILLTDSLMQDFKGYLGCQALSEMIQFYLVEVMPQAEKHGPEIKEHLNSLGEKLKTLRMRLRRCHRFLPCENKSKAVEQVKSDFNKLQDQGVYKAMNEFDIFINCIEAYMMIKMKS
[1]
  levels of IL-6 secretion: down regulated
  levels of TNF-α secretion: down regulated
